B1: GS3337 (nucleic acid)
sense: UUUAUUAUGGCACUGGCGUGAAAAUACCUUAUCCCAAGGCAGAUACCGAUAAUGCGAGUGCUCAUGGAUAUACAAACAUUAAGGGCGGUAAUCCGGAAGGACGAGCUUUUCACCAUGGUAGACUAAUAUCUCAGCUCCGUAGAUGCUGCUCCCAGAACCCGAACAUCAAAAUUGUUGAAACGCUGGUUACAGAGACUAUUACGAAUCCUCAAACCCAAACUGUAAUUGGCGUAAGGUCAGAGACAAUGAAUGAUAAAACAGGCAAAAGAGAAGCCGACUACUAUUUGGGAGAUCUCACAAUUAUCGCCGAUGGAUAUGCAUCUAAAUUCCGAAAGCAGUAUAUAGACAAGUCACCCAUCGUAAAAAGCAAAUUCUAUGCUUUAGAGCUGAUAGAUU
antisense: AAUCUAUCAGCUCUAAAGCAUAGAAUUUGCUUUUUACGAUGGGUGACUUGUCUAUAUACUGCUUUCGGAAUUUAGAUGCAUAUCCAUCGGCGAUAAUUGUGAGAUCUCCCAAAUAGUAGUCGGCUUCUCUUUUGCCUGUUUUAUCAUUCAUUGUCUCUGACCUUACGCCAAUUACAGUUUGGGUUUGAGGAUUCGUAAUAGUCUCUGUAACCAGCGUUUCAACAAUUUUGAUGUUCGGGUUCUGGGAGCAGCAUCUACGGAGCUGAGAUAUUAGUCUACCAUGGUGAAAAGCUCGUCCUUCCGGAUUACCGCCCUUAAUGUUUGUAUAUCCAUGAGCACUCGCAUUAUCGGUAUCUGCCUUGGGAUAAGGUAUUUUCACGCCAGUGCCAUAAUAAA
B2: GS3344 (nucleic acid)
sense: GACUAUUGUCCUGACUAAACUAUAUACCAUCUGCUAACACGAUCCUCAAAGCAAAAUUUUUAACCGAUGAUCAUAAGUCAUGUAAAAGUUGAAAUUUCAACACACACCAAGAAAAAUAGCCUUGGUCUUUCAAUUUACAGCAUCCAUAUGGAUGCUAUUUUCUUAUAUAUUUCACCUACCUCCUGAGAACUGCAUCAAGAUUCGAGGUCGUUUCUUUAUAUAAUCAUGUCAAAUAAUGCAUGAUAAAUGAGUAAGAGGCUCUAGGCAGUCAAACUCAAAGAAUUGUCUUCAAUUGUAUUGUCAUUUUAUCUCAUUUGAUAAUGAGUUGUAGCCGCAACUCAAAUCAUUUUUCAUUUUUUGAAAAUGAAGUAAAAGACCGGUUUAAAAAAUUAAAUAUC
antisense: GAUAUUUAAUUUUUUAAACCGGUCUUUUACUUCAUUUUCAAAAAAUGAAAAAUGAUUUGAGUUGCGGCUACAACUCAUUAUCAAAUGAGAUAAAAUGACAAUACAAUUGAAGACAAUUCUUUGAGUUUGACUGCCUAGAGCCUCUUACUCAUUUAUCAUGCAUUAUUUGACAUGAUUAUAUAAAGAAACGACCUCGAAUCUUGAUGCAGUUCUCAGGAGGUAGGUGAAAUAUAUAAGAAAAUAGCAUCCAUAUGGAUGCUGUAAAUUGAAAGACCAAGGCUAUUUUUCUUGGUGUGUGUUGAAAUUUCAACUUUUACAUGACUUAUGAUCAUCGGUUAAAAAUUUUGCUUUGAGGAUCGUGUUAGCAGAUGGUAUAUAGUUUAGUCAGGACAAUAGUC
B3: GS3347 (nucleic acid)
sense: GUGAGUAUCAGGUGUAUAAAUAAAACGUAUAAAAAUGUGAUGUUAUAGAUCGACGGUCAAAGAUUUCUAGAGAUUGAGGUACUGGACAUUCCUUCUUCAACCCCUCAAGAAAUUGUUAAGUCGAAAGAUUAGUAAUUCUCAACUCUGAUUAAAAUAAUCGAUAUGUAUGAAGAUAAGCGAGAUGAAUUGAUAAUGUUGUCUAAAAUUUCGAAUUAUGAAUCUUUACAAAAGAGGGUGAGUUGUCGUAUGAUAAAAGGAGCCUGCUCCGAUCUAGAUAGAACACAGCAGGUAAAGUAGAAGUGAUAUCUGCGAGGAGCCUUGACACCAGCAAGGACUCAGUCCGAAGAGUACGAGUUGCUUUCUGGUUUGUUGAAUGAAAGAAGUAGAAAAAAAUAUAA
antisense: UUAUAUUUUUUUCUACUUCUUUCAUUCAACAAACCAGAAAGCAACUCGUACUCUUCGGACUGAGUCCUUGCUGGUGUCAAGGCUCCUCGCAGAUAUCACUUCUACUUUACCUGCUGUGUUCUAUCUAGAUCGGAGCAGGCUCCUUUUAUCAUACGACAACUCACCCUCUUUUGUAAAGAUUCAUAAUUCGAAAUUUUAGACAACAUUAUCAAUUCAUCUCGCUUAUCUUCAUACAUAUCGAUUAUUUUAAUCAGAGUUGAGAAUUACUAAUCUUUCGACUUAACAAUUUCUUGAGGGGUUGAAGAAGGAAUGUCCAGUACCUCAAUCUCUAGAAAUCUUUGACCGUCGAUCUAUAACAUCACAUUUUUAUACGUUUUAUUUAUACACCUGAUACUCAC
B4: GS3343 (nucleic acid)
sense: CUAGCACUUACGAGCACGUCUCUUUGAAUUCAACUAGAGACUCACAAUUAUACCUUCCUCCUAUUAAAUCUUUAGUAUUGGAUACGAAAAAUGAGGGAAGUUAUUAGUGUUAAUGUUGGCCAAGCUGGGUGCCAAAUAGCAAACUCUUGCUGGGAGCUCUAUUGCCUUGAGCAUGGUAUACAGCCUGAUGGUUACUUAACGGAGAAGCGCAAGGCCGCCGAACCUGACGAAGGUUUCAGCACUUUUUUUUCAGAGACUGGUCAGGGAAAAUACGUACCUAGAACUAUUUAUUGUGAUCUUGAACCAAAUGUAGUCGAUGAAGUUCGUACGGGUACUUAUCGUAGCUUAUUCCACCCCGAGCAAAUGAUCACCGGAAAAGAAGAUGCAUCAAACAAUUA
antisense: UAAUUGUUUGAUGCAUCUUCUUUUCCGGUGAUCAUUUGCUCGGGGUGGAAUAAGCUACGAUAAGUACCCGUACGAACUUCAUCGACUACAUUUGGUUCAAGAUCACAAUAAAUAGUUCUAGGUACGUAUUUUCCCUGACCAGUCUCUGAAAAAAAAGUGCUGAAACCUUCGUCAGGUUCGGCGGCCUUGCGCUUCUCCGUUAAGUAACCAUCAGGCUGUAUACCAUGCUCAAGGCAAUAGAGCUCCCAGCAAGAGUUUGCUAUUUGGCACCCAGCUUGGCCAACAUUAACACUAAUAACUUCCCUCAUUUUUCGUAUCCAAUACUAAAGAUUUAAUAGGAGGAAGGUAUAAUUGUGAGUCUCUAGUUGAAUUCAAAGAGACGUGCUCGUAAGUGCUAG
B5: GS3335 (nucleic acid)
sense: UUGAGUACAGAGUAGUAGUAAUCUAUUUACAUGAAUUACAAGCUUGUACGGAUGAAUGUUUGUCAUAAGCCUACUCAUCUUUCAUGGCGAAUUUCCCAGGCGGCUAACUACUCUAAUUUGUGAGAGGCAUGAAAGUAAUGAUAGAUUUUCUCUAUGUAUAAUAAAUAGUACUCGUAUUUUAAUCAUUCAAACCCUAGUGAUAUCUUUUGUACUCUUCUCUUAUCAAAUUACAUCAAGUUCAUUCCGUCAUUUCUCGUUAUAUAUGACAUAUAAAGCAUUCCAUUCGCAUGAUAGAAAAUAAGUAAUAUGUAUAAUGACUCAAAGCCUUCACCCCAUAGCCAAAAAGUUGGGUUUAUAGUGAAACUUGUGACGUAGAGGGGAUUAAUAUCGCAUUUUCU
antisense: AGAAAAUGCGAUAUUAAUCCCCUCUACGUCACAAGUUUCACUAUAAACCCAACUUUUUGGCUAUGGGGUGAAGGCUUUGAGUCAUUAUACAUAUUACUUAUUUUCUAUCAUGCGAAUGGAAUGCUUUAUAUGUCAUAUAUAACGAGAAAUGACGGAAUGAACUUGAUGUAAUUUGAUAAGAGAAGAGUACAAAAGAUAUCACUAGGGUUUGAAUGAUUAAAAUACGAGUACUAUUUAUUAUACAUAGAGAAAAUCUAUCAUUACUUUCAUGCCUCUCACAAAUUAGAGUAGUUAGCCGCCUGGGAAAUUCGCCAUGAAAGAUGAGUAGGCUUAUGACAAACAUUCAUCCGUACAAGCUUGUAAUUCAUGUAAAUAGAUUACUACUACUCUGUACUCAA
B6: GS3346 (nucleic acid)
sense: GUAGAGUUGAGCUUGGCCCUAAUGGCGUAAAUAAGAUCCAUGAAGUGGGAAACCUUGCUCCUGAAGAACAAGGUCUUUUAAAAGCUGCUCUAGUUGAUUUGUUAAAGAAUAUCGAAAAAGGAAUCAAAUUUGUUAACCAGAACCCCGGUGAAUAAAUAAAAUGUUAUUCAAUUUACAAUCUGUUGUUUUUUGAUCGUGGAUACCUUGAUAUUCAGUAACGAGGGAGAAUCAUUCUCCUGUCCCAAAAAAGUACUAUCUACUAUCUUAAAUUUUAUGGAAUCUUGAAUUUGUCCAAUGUAUCAAUAGAAAAAUUCUUUCAAAUUACAAGUCAAAAGUAUUAUGAAAAUUAAAAAGGACUAAUCCUCUUACAUAGAUAUAUAUAAAUAUA
antisense: UAUAUUUAUAUAUAUCUAUGUAAGAGGAUUAGUCCUUUUUAAUUUUCAUAAUACUUUUGACUUGUAAUUUGAAAGAAUUUUUCUAUUGAUACAUUGGACAAAUUCAAGAUUCCAUAAAAUUUAAGAUAGUAGAUAGUACUUUUUUGGGACAGGAGAAUGAUUCUCCCUCGUUACUGAAUAUCAAGGUAUCCACGAUCAAAAAACAACAGAUUGUAAAUUGAAUAACAUUUUAUUUAUUCACCGGGGUUCUGGUUAACAAAUUUGAUUCCUUUUUCGAUAUUCUUUAACAAAUCAACUAGAGCAGCUUUUAAAAGACCUUGUUCUUCAGGAGCAAGGUUUCCCACUUCAUGGAUCUUAUUUACGCCAUUAGGGCCAAGCUCAACUCUAC
B7: GS1798: dsRNA trigger SEQ ID NO 192; gene target Tip elongation aberrant protein 1 (nucleic acid)
DNA: AAATGTGTACCACCTTCTTGATGTAATTCTGAACGCAGCCAAATCTCCCAAGTCAGATCCATCGTCAGCCCGTCCTCCAAAGACATACATCACATCGTCAACAATTGCTGCAGCATGACCTTCTCTTGGAACCGGTATATATCCTATGCAGTCCAAAAGAGTCCAGGAGTTCGGTATCGGATCATAACACCAAACATCGTTATACCATTGAAGACCATTTGTTCCGCCAAACAAGTAAAGCTTTTCATTATATGTCACAACTGAGTGATTTGTTCTAGCTGATGGTATTTGTCCTACTGGGGGTCCACCATCCTCACTATTTTTAATGAGAATTTCCCACCTGTTCGTAGGGACTTGCAAAAGATTCAAATCAAAAGCCACAAGGTCATTCATAAAATAACCCTCTACTTGCCCCCCGAATACGTAGATTTTAGACCCTAGTATATTGAGAGAATGACCATAACGCCCCGCGGGCCGTGGCCCGGCAGGTATAGCTCTGGACCATTGTCGGGTAGAGGTATTAAGTAAGTAAAGAGTTTCATCTAATACGTCAGAATCGTCCATTTTAGTATCCCCACCATATACAATAAAAGCATTT

Test system: E. necator
Assay: Leaf disc assay, dry inoculum (settling tower), decrease in disease severity / hyphal growth (Example 2)
Conditions: decrease in disease severity (hyphal growth) relative to untreated control, value ± SE; for % decrease =/− SE TP1: time point 1 (untreated control hyphal growth ≥50%); for % decrease =/− SE TP2: time point 2

Molecule | % decrease =/− SE TP1 [%] | % decrease =/− SE TP2 [%]
B1 | 19 ± 5 | 15 ± 7
B2 | 1 ± 7 | 
B3 | 2 ± 7 | 
B4 | 7 ± 6 | 
B5 | 12 ± 6 | 
B6 | 3 ± 6 | 
B7 | 44 ± 4 | 47 ± 5

From patent publication US12077763B2, “RNA-based control of powdery mildew” (Greenlight Biosciences, Inc., priority 2021, dated 2024)
